What was measured:
human transferrin [1] = target: T1, human transferrin (human, UniProt P02787 20-698); experiment: SPR, BIAcore T200, sdAb amine-coupled to CM5 chip, transferrin injected
Method: (§1) Experiments were performed using a BIAcore T200 optical sensor platform and research grade CM5 sensor chips (GE Healthcare). AS01274 sdAb and AS01299 sdAb were immobilized on the sensor chip surface by standard amine coupling. All experiments were carried out in HEPES buffer [10 mM HEPES (pH 7.4), 150 mM NaCl, 3.4 mM EDTA, 0.005% Tween 20] at 25° C. Human Transferrin and Cynomolgus monkey Transferrin were injected at serial dilutions ranging from 3.9 nM to 2000 nM at a flow rate of 30 μl/min unless otherwise indicated. The amount of bound analyte after subtraction from the blank control surface is shown as relative response units (RU). The double referenced sensorgrams from each injection series were analyzed for binding kinetics using BIA evaluation software (GE Healthcare). Dissociation constants (KDs) were calculated from the on- and off-rates (kₒₙ and koff, respectively), as determined by global fitting of the experimental data to a 1:1 Langmuir binding model (Chi²<1).

[2] = target: T2, cynomolgus monkey transferrin (cynomolgus monkey, UniProt A0A2K5UXZ0 20-695); experiment: as above
T2 construct: also called cynomolgus transferrin
Method: as §1

[3] = target: T2, cynomolgus monkey transferrin; experiment: SPR, BIAcore T200, cynomolgus monkey transferrin as ligand, sdAb as analyte
human transferrin [4] = target: T1, human transferrin; experiment: SPR, BIAcore T200, human transferrin amine-coupled to CM5 chip, sdAb injected
Method: as §1, with “Healthcare; Little Chalfont, United Kingdom). Human transferrin was” for “Healthcare). AS01274 sdAb and AS01299 sdAb were”, “Human Transferrin and Cynomolgus monkey Transferrin were injected at serial dilutions ranging from 3.9 nM to 2000 nM at a flow rate of 30 μl/min unless otherwise indicated.” left out

T1 sequence (P02787 20-698 limits assumed): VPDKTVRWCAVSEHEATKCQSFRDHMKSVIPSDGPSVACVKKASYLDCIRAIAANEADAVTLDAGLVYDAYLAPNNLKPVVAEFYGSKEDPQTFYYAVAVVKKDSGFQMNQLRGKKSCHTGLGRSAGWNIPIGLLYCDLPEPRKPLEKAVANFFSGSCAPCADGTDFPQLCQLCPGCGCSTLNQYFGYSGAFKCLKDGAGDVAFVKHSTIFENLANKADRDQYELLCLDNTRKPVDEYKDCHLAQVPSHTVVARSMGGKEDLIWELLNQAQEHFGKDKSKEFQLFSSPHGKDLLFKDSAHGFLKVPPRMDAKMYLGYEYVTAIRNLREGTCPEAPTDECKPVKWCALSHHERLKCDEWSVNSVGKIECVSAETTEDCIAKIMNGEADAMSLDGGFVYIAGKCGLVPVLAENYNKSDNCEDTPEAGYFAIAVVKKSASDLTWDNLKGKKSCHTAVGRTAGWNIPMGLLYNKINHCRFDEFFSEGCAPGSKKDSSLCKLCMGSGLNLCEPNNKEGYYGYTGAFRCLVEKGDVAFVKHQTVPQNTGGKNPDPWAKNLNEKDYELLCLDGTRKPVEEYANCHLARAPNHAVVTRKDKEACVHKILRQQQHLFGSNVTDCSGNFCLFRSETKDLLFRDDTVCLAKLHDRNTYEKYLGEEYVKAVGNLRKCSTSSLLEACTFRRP

Binder | Kd (human transferrin [1]) [nM] | koff (human transferrin [1]) [s⁻¹] | kon (human transferrin [1]) [M⁻¹ s⁻¹] | Kd [2] [nM] | koff [2] [s⁻¹] | kon [2] [M⁻¹ s⁻¹] | Kd [3] [nM] | koff [3] [s⁻¹] | kon [3] [M⁻¹ s⁻¹] | Kd (human transferrin [4]) [nM] | koff (human transferrin [4]) [s⁻¹] | kon (human transferrin [4]) [M⁻¹ s⁻¹]
AS01299 sdAb (VHH, Llama sdAb made in E. coli with a C-terminal 6xHis tag; also called sdAb AS01299) VHH: QVQLVESGGGLVQPGGSLRLSCAASGSIFSIATMAWYRQAPGKQRELVAGITRSGSTNYRDSVKGRFTISRDNAKNTMYLQMNSLKPEDTAVYYCTDYSSRYYHDYWGQGTQVTVSS | 140 | 0.0031 | 22000 | 8.8 | 0.00046 | 52000 | 0.065 | 0.00056 | 8.6e+06 | 0.98 | 0.0022 | 2.2e+06
AS01274 sdAb (VHH, Llama sdAb made in E. coli with a C-terminal 6xHis tag; also called sdAb AS01274) VHH: QVQLVESGGGLVQPGGSLRLSCVASGSIASIATMAWYRQAPGQQRELVAGITRGGSTKYADSVKGRFTISRDNAKNTLYLQMNSLKPDDTAVYYCTDYSRKYYQDYWGQGTQVTVSS | 16 | 0.00019 | 12000 | 1.6 | 4.4e-05 | 27000 | 0.0067 | 8.9e-05 | 1.3e+07 | 0.09 | 0.0003 | 3.3e+06
AS01299VH3a (VHH, Humanized variant of AS01299, C-terminal 6xHis tag) VHH: EVQLVESGGGLVQPGGSLRLSCAASGSIFSIATMAWYRQAPGKGLELVAGITRSGSTNYRDSVKGRFTISRDNSKNTMYLQMNSLRAEDTAVYYCTDYSSRYYHDYWGQGTLVTVSS |  |  |  |  |  |  | 0.057 | 0.00028 | 4.9e+06 | 1.3 | 0.0011 | 810000
AS01299VH3a-A49 (VHH, Humanized variant of AS01299, C-terminal 6xHis tag) VHH: EVQLVESGGGLVQPGGSLRLSCAASGSIFSIATMAWYRQAPGKGLELVSGITRSGSTNYRDSVKGRFTISRDNSKNTMYLQMNSLRAEDTAVYYCTDYSSRYYHDYWGQGTLVTVSS |  |  |  |  |  |  | 0.1 | 0.00027 | 2.6e+06 | 2.4 | 0.001 | 420000
AS01299VH3a-L47 (VHH, Humanized variant of AS01299, C-terminal 6xHis tag; also called AS01299VH3a-L47-2) VHH: EVQLVESGGGLVQPGGSLRLSCAASGSIFSIATMAWYRQAPGKGLEWVAGITRSGSTNYRDSVKGRFTISRDNSKNTMYLQMNSLRAEDTAVYYCTDYSSRYYHDYWGQGTLVTVSS |  |  |  |  |  |  | 0.053 | 0.00048 | 8.9e+06 | 3.7 | 0.0025 | 680000
AS01299VH3a-M78 (VHH, Humanized variant of AS01299, C-terminal 6xHis tag) VHH: EVQLVESGGGLVQPGGSLRLSCAASGSIFSIATMAWYRQAPGKGLELVAGITRSGSTNYRDSVKGRFTISRDNSKNTLYLQMNSLRAEDTAVYYCTDYSSRYYHDYWGQGTLVTVSS |  |  |  |  |  |  | 0.058 | 0.0003 | 5.2e+06 | 1.1 | 0.0012 | 1e+06
AS01299VH4 (VHH, Humanized variant of AS01299, C-terminal 6xHis tag) VHH: EVQLVESGGGLVQPGGSLRLSCAASGSIFSIATMAWYRQAPGKGLELVSGITRSGSTNYRDSVKGRFTISRDNSKNTLYLQMNSLRAEDTAVYYCTDYSSRYYHDYWGQGTLVTVSS |  |  |  |  |  |  | 0.054 | 0.0003 | 5.7e+06 | 1.1 | 0.0011 | 1e+06
AS01299VH4-L47 (VHH, Humanized variant of AS01299, C-terminal 6xHis tag; also called AS01299VH4-L47-2) VHH: EVQLVESGGGLVQPGGSLRLSCAASGSIFSIATMAWYRQAPGKGLEWVSGITRSGSTNYRDSVKGRFTISRDNSKNTLYLQMNSLRAEDTAVYYCTDYSSRYYHDYWGQGTLVTVSS |  |  |  |  |  |  | 0.071 | 0.00066 | 9.3e+06 | 6 | 0.0035 | 590000
AS01274VHa (VHH, Humanized variant of AS01274, C-terminal 6xHis tag) VHH: EVQLVESGGGLVQPGGSLRLSCAASGSIASIATMAWYRQAPGKGLELVAGITRGGSTKYADSVKGRFTISRDNSKNTLYLQMNSLRAEDTAVYYCTDYSRKYYQDYWGQGTLVTVSS |  |  |  |  |  |  | 0.011 | 8.1e-05 | 7.3e+06 | 0.13 | 0.0002 | 1.5e+06
AS01274VHa-A49 (VHH, Humanized variant of AS01274, C-terminal 6xHis tag) VHH: EVQLVESGGGLVQPGGSLRLSCAASGSIASIATMAWYRQAPGKGLELVSGITRGGSTKYADSVKGRFTISRDNSKNTLYLQMNSLRAEDTAVYYCTDYSRKYYQDYWGQGTLVTVSS |  |  |  |  |  |  | 0.009 | 7.9e-05 | 8.7e+06 | 0.11 | 0.00016 | 1.5e+06

Source: patent US20220033481A1 (NANJING LEGEND BIOTECH, published 2022)
